The values that follow come from patent US20170035877A1.

In assay [1] the target is JRFL SOSIP.663 trimer, negatively selected (flow-through of the F105 column) (HIV-1 JRFL (subtype B)) (UniProt P20871). Kind of assay: negative-stain EM, 2D class averages.
The target of assay [2] is 16055 SOSIP.663 trimer, negatively selected (flow-through of the GE136 column) (HIV-1 16055 (subtype C)). The assay is described as follows: negative-stain EM, 2D class averages.
Assay [3] addresses 16055 gp120 (HIV-1 16055 (subtype C)).
Assay [4] deals with JRFL SOSIP.663 trimer, negatively selected (flow-through of the F105 column) (HIV-1 JRFL (subtype B)) (UniProt P20871). The assay is described as follows: negative-stain EM, stoichiometry from micrographs.
Assay [5] has as its target 16055 SOSIP.663 trimer, negatively selected (flow-through of the GE136 column) (HIV-1 16055 (subtype C)). Kind of assay: negative-stain EM, stoichiometry from micrographs.
The target in assay [6] is 16055 SOSIP (HIV-1 16055 (subtype C)). Kind of assay: ITC. To be noted: Fab.

pKd: −log10 of the molar value.

With 19b Fab, the percent of trimers with one Fab bound was found to be 25% in assay [1] and 22% in assay [2].

For the substance F105, the pKd in assay [3] was 7.52.

PGT151 Fab: in assay [4], the percent of trimers with one Fab bound was found to be 28%, the percent of trimers with three Fabs bound was found to be 11% and the percent of trimers with two Fabs bound was 36%. In addition, in assay [5], the percent of trimers with one Fab bound was 34%, the percent of trimers with three Fabs bound stood at 0% and the percent of trimers with two Fabs bound came out at 20%.

In assay [6], VRC01 Fab showed a negative logarithm of the Kd (pKd) of 7.01.
